Assays:
[1] = biological target: human HGFδ5 (human) (UniProt P14210); test: Biacore SPR, antibody captured on anti-human IgG, HGF as analyte, 37 C, 1:1 model
[2] = biological target: T1, Human HGFv1 (human, UniProt P14210 32-728); test: as above
T1 construct: Biotinylated in the bridging ELISA; also called HGF (fl); HGF full length

[3] = biological target: recombinant human VEGF (hVEGF-165) (human) (UniProt P15692); test: Proteon SPR estimate, mAb-dAb in transfection supernatant

T1 sequence (P14210 32-728 limits assumed, form in doubt): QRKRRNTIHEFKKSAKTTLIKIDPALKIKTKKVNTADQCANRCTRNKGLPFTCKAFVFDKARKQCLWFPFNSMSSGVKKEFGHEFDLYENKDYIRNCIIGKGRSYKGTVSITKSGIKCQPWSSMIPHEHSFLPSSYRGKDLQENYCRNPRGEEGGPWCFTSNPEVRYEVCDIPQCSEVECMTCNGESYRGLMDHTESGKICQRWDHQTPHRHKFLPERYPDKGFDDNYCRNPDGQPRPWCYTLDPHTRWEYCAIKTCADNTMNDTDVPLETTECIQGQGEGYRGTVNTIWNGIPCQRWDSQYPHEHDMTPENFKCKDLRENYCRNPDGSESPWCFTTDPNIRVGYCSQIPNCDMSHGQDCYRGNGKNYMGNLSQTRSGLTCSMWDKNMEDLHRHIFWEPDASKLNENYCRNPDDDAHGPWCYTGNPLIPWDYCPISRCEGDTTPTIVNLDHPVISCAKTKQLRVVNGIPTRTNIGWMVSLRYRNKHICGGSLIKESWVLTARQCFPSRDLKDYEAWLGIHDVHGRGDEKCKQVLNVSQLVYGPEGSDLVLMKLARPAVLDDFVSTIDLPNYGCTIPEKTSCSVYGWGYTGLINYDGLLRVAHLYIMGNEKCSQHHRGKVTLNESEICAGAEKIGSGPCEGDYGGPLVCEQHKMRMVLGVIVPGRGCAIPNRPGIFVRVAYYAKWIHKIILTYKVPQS
human HGFδ5 (human), sequence (P14210 other isoform, or with tags, fused parts or gaps mutant): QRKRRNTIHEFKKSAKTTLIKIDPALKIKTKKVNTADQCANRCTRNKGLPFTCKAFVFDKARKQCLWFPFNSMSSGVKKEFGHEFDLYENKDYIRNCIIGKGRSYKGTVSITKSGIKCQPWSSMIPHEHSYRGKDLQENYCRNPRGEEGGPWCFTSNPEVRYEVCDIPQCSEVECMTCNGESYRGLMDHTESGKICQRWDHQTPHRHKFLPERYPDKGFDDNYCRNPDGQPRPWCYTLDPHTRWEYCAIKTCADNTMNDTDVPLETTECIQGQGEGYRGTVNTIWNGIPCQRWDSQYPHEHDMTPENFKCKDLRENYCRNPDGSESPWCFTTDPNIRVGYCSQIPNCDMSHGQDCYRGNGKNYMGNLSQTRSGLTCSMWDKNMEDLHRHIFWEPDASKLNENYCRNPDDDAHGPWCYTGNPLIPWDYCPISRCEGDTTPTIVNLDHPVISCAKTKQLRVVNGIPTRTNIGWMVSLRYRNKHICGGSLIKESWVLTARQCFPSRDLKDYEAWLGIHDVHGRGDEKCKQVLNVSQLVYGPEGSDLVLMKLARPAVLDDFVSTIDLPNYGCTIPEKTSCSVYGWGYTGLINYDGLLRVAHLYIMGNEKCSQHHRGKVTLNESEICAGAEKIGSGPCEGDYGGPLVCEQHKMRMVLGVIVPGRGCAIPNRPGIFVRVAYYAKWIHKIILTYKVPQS

Binder | Kd [3] | also measured
BPC 1856, anti-HGF S260116C12VL1 Chimera (antibody, V domains shown, also called chimeric mAb BPC1856) VH: QIQLRQSGAGLMKPGASVKLSCKATGYTFTGYWIEWVKQRPGHDLEWIGEILPGSGTTNYNEKFKGKATFTADTSSNTAYMQLSSLTTEDSAIYYCARGGYYYGSSYDSWGQGTLVTVSS VL: DIVLTQSPASLAVSLGQRATISCRASESVSIHGTHLMHWYQQKPGQPPKLLIYAASNLESGVPARFSGSGSETDFTLNIHPVEEEDAATYFCQQSIEDPYTFGGGTKLEIKR |  | Kd [1]: 0.042 nM; koff [1]: 1.78e-05 s⁻¹; kon [1]: 423000 M⁻¹ s⁻¹; Kd [2]: 0.034 nM; koff [2]: 1.49e-05 s⁻¹; kon [2]: 434000 M⁻¹ s⁻¹
DT02-K-044-077 in Pascolizumab-(GSTVAAPS)3-T mAb-dAb format (bispecific antibody, part only; not given: Pascolizumab chains and linker, not shown: another chain or arm of the molecule; small tags and cut ends) dAb: DIQMTQSPSSLSASVGDRVTITCRASQWIGPELAWYQQKPGKAPKLLIYHGSILQSGVPSRFSGSGSGTDFTLTISSLQPEDFATYYCQQYMYYPHTFGQGTKVEIKR | 0.04 nM | 
DT02-K-044-083 in Pascolizumab-(GSTVAAPS)3-T mAb-dAb format (bispecific antibody, part only; not given: pascolizumab heavy and light chains, not shown: another chain or arm of the molecule; small tags and cut ends) dAb: DIQMTQSPSSLSASVGDRVTITCRASQWIGPELHWYQQKPGKAPKLLIYHGSILQSGVPSRFSGSGSGTDFTLTISSLQPEDFATYYCQQYMYYPHTFGQGTKVEIKR | 0.049 nM | 
DT02-K-044-088 in Pascolizumab-(GSTVAAPS)3-T mAb-dAb format (bispecific antibody, part only; not given: pascolizumab chains and linker, not shown: another chain or arm of the molecule; large carriers; small tags and cut ends) dAb: DIQMTQSPSSLSASVGDRVTITCRASQWIGPELNWYQQKPGKAPKLLIYHGSILQSGVPSRFSGSGSGTDFTLTISSLQPEDFATYYCQQYMYYPHTFGQGTKVEIKR | 0.052 nM | 
DT02-K-044-090 in Pascolizumab-(GSTVAAPS)3-T mAb-dAb format (bispecific antibody, part only; not given: pascolizumab chains and linker, not shown: another chain or arm of the molecule; large carriers; small tags and cut ends) dAb: DIQMTQSPSSLSASVGDRVTITCRASQWIGPELQWYQQKPGKAPKLLIYHGSILQSGVPSRFSGSGSGTDFTLTISSLQPEDFATYYCQQYMYYPHTFGQGTKVEIKR | 0.02 nM | 
DT02-K-044-247 in Pascolizumab-(GSTVAAPS)3-T mAb-dAb format (bispecific antibody, part only; not given: pascolizumab chains and linker, not shown: another chain or arm of the molecule; large carriers; small tags and cut ends) dAb: DIQMTQSPSSLSASVGDRVTITCRASQWIGPELSWYQQKPGKAPKLLIYHGSILQSGVPSRFSGSGSGTDFTLTISSLQPEDFATYYCQQYMYYPYTFGQGTKVEIKR | 0.018 nM | 
DT02-K-044-093 in Pascolizumab-(GSTVAAPS)3-T mAb-dAb format (bispecific antibody, part only; not given: Pascolizumab chains and linker, not shown: another chain or arm of the molecule; large carriers; small tags and cut ends) dAb: DIQMTQSPSSLSASVGDRVTITCRASQWIGPELVWYQQKPGKAPKLLIYHGSILQSGVPSRFSGSGSGTDFTLTISSLQPEDFATYYCQQYMYYPHTFGQGTKVEIKR | 0.034 nM | 
DT02-K-044-240 in Pascolizumab-(GSTVAAPS)3-T mAb-dAb format (bispecific antibody, part only; not given: pascolizumab chains and linker, not shown: another chain or arm of the molecule; large carriers; small tags and cut ends) dAb: DIQMTQSPSSLSASVGDRVTITCRASQWIGPELSWYQQKPGKAPKLLIYHGSILQSGVPSRFSGSGSGTDFTLTISSLQPEDFATYYCQQYMYYPPTFGQGTKVEIKR | 0.043 nM | 
DT02-K-044-230 in Pascolizumab-(GSTVAAPS)3-T mAb-dAb format (bispecific antibody, part only; not given: pascolizumab chains and linker, not shown: another chain or arm of the molecule; small tags and cut ends) dAb: DIQMTQSPSSLSASVGDRVTITCRASQWIGPELSWYQQKPGKAPKLLIYHGSILQSGVPSRFSGSGSGTDFTLTISSLQPEDFATYYCQQYMYYPCTFGQGTKVEIKR | 0.023 nM | 
DT02-K-044-239 in Pascolizumab-(GSTVAAPS)3-T mAb-dAb format (bispecific antibody, part only; not given: Pascolizumab chains and linker, not shown: another chain or arm of the molecule; large carriers; small tags and cut ends) dAb: DIQMTQSPSSLSASVGDRVTITCRASQWIGPELSWYQQKPGKAPKLLIYHGSILQSGVPSRFSGSGSGTDFTLTISSLQPEDFATYYCQQYMYYPNTFGQGTKVEIKR | 0.013 nM | 
DT02-K-044-238 in Pascolizumab-(GSTVAAPS)3-T mAb-dAb format (bispecific antibody, part only; not given: Pascolizumab chains and linker, not shown: another chain or arm of the molecule; small tags and cut ends) dAb: DIQMTQSPSSLSASVGDRVTITCRASQWIGPELSWYQQKPGKAPKLLIYHGSILQSGVPSRFSGSGSGTDFTLTISSLQPEDFATYYCQQYMYYPMTFGQGTKVEIKR | 0.044 nM | 

Further lines, with some results ahead:

Kd [3] | Binder | also measured
0.005 nM | DT02-K-044-087 in Pascolizumab-(GSTVAAPS)3-T mAb-dAb format (bispecific antibody, part only; not given: pascolizumab chains and linker, not shown: another chain or arm of the molecule; large carriers; small tags and cut ends) dAb: DIQMTQSPSSLSASVGDRVTITCRASQWIGPELMWYQQKPGKAPKLLIYHGSILQSGVPSRFSGSGSGTDFTLTISSLQPEDFATYYCQQYMYYPHTFGQGTKVEIKR | 
0.004 nM | DT02-K-044-235 in Pascolizumab-(GSTVAAPS)3-T mAb-dAb format (bispecific antibody, part only; not given: pascolizumab chains and linker, not shown: another chain or arm of the molecule; small tags and cut ends) dAb: DIQMTQSPSSLSASVGDRVTITCRASQWIGPELSWYQQKPGKAPKLLIYHGSILQSGVPSRFSGSGSGTDFTLTISSLQPEDFATYYCQQYMYYPITFGQGTKVEIKR | 
0.004 nM | DT02-K-044-232 in Pascolizumab-(GSTVAAPS)3-T mAb-dAb format (bispecific antibody, part only; not given: pascolizumab chains and linker, not shown: another chain or arm of the molecule; small tags and cut ends) dAb: DIQMTQSPSSLSASVGDRVTITCRASQWIGPELSWYQQKPGKAPKLLIYHGSILQSGVPSRFSGSGSGTDFTLTISSLQPEDFATYYCQQYMYYPETFGQGTKVEIKR | 
0.003 nM | DT02-K-044-092 in Pascolizumab-(GSTVAAPS)3-T mAb-dAb format (bispecific antibody, part only; not given: pascolizumab chains and linker, not shown: another chain or arm of the molecule; large carriers; small tags and cut ends) dAb: DIQMTQSPSSLSASVGDRVTITCRASQWIGPELTWYQQKPGKAPKLLIYHGSILQSGVPSRFSGSGSGTDFTLTISSLQPEDFATYYCQQYMYYPHTFGQGTKVEIKR | 
0.006 nM | DT02-K-044-095 in Pascolizumab-(GSTVAAPS)3-T mAb-dAb format (bispecific antibody, part only; not given: pascolizumab chains and linker, not shown: another chain or arm of the molecule; large carriers; small tags and cut ends) dAb: DIQMTQSPSSLSASVGDRVTITCRASQWIGPELYWYQQKPGKAPKLLIYHGSILQSGVPSRFSGSGSGTDFTLTISSLQPEDFATYYCQQYMYYPHTFGQGTKVEIKR | 
0.002 nM | DT02-K-044-229 in Pascolizumab-(GSTVAAPS)3-T mAb-dAb format (bispecific antibody, part only; not given: pascolizumab chains and linker, not shown: another chain or arm of the molecule; small tags and cut ends) dAb: DIQMTQSPSSLSASVGDRVTITCRASQWIGPELSWYQQKPGKAPKLLIYHGSILQSGVPSRFSGSGSGTDFTLTISSLQPEDFATYYCQQYMYYPATFGQGTKVEIKR | 

From US20130236467A1 (published 2013)
